Laboratory results from patent publication US20260193348A1 (ANTENGENE BIOLOGICS, published 2026).

Tests used:
CD3 on Jurkat cells = target: T1, CD3 on Jurkat cells (UniProt P07766 23-207; P04234 22-171; P09693 23-182); experiment: FACS on Jurkat cells
T1 construct: whole, on cells; On the cell, CD3 stands in the TCR-CD3 complex; also called cluster of differentiation 3
Experimental: The binding affinities of the generated humanized Fab-scFv-Fab bispecific antibodies were determined by FACS analysis. […] (a) Jurkat cells were washed by Staining Buffer (PBS+1% BSA) in round bottom 96-well plate. [0833] (b) Antibody dilutions and cells were added to each well, incubated at 4 degrees for 1 hour. [0834] (c) Cells were spined down at 300 g for 3 minutes, and the supernatants were discarded. [0835] (d) Cells were washed with Staining Buffer. […] (e) Step (d) was repeated and the cells were incubated for 0.5 hours at 4 degrees with secondary antibody in Staining Buffer. [0837] (f) After incubation, step (d)-(e) were repeated. […] (g) Staining Buffer was added and fluorescence signals were recorded by flow cytometry.
The binding affinities of the generated humanized Fab-scFv-Fab bispecific antibodies were determined by FACS analysis. The protocol for FACS analysis is identical to that described in Example 3.2, except that different test antibodies were used.

GPRC5D on MM.1S cells [1] = target: T2, GPRC5D on MM.1S cells (human, UniProt Q9NZD1 1-345); experiment: cell-based or functional assay
GPRC5D on MM.1S cells [2] = target: T2, GPRC5D on MM.1S cells; experiment: cell-based or functional assay; remark: listed apart in the source
GPRC5D on MM.1S cells [3] = target: T2, GPRC5D on MM.1S cells; experiment: FACS on MM.1S cells
Experimental: To evaluate the binding affinity of the generated chimeric bispecific antibody to T cells, the isolated CD3⁺ T cells were stained by antibodies and the binding affinity was determined by FACS analysis. The protocol of FACS analysis is described as follows: [0785] (a) CD3⁺ T cells were isolated from normal donors. [0786] (b) The isolated CD3⁺ T cells were washed by Staining Buffer (PBS+1% BSA) in round bottom 96-well plate. […] (c) Antibody dilutions were added to each well and mixed with the CD3+ T cells, incubated at 4 degrees for 1 hour. […] (d) Cells were spined at 300 g for 3 minutes, then the supernatants were discarded. [0789] (e) Cells were washed with Staining Buffer. [0790] (f) Step (d) was repeated, and the cells were incubated with secondary antibody in Staining Buffer for 0.5 hours at 4 degrees. [0791] (g) After incubation, step (d)-(e) were repeated. [0792] (h) Cells were resuspended in Staining Buffer and fluorescence signals were recorded by flow cytometry.
The binding affinities of the generated humanized Fab-scFv-Fab bispecific antibodies to MM.1S were evaluated by FACS analysis. The protocol for FACS analysis is identical to that described in Example 1.2, except that MM.1S were used in this example.

T2 sequence (Q9NZD1 whole entry): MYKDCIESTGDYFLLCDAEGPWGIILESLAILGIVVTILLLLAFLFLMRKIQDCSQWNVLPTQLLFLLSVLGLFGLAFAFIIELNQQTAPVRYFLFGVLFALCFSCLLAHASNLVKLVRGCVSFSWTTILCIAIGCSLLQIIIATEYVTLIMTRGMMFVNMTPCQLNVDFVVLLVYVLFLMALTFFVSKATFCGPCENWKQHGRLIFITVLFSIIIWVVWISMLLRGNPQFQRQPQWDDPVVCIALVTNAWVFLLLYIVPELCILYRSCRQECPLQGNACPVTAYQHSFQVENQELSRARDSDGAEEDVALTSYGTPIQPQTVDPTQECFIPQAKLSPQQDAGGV
T1 sequence (P07766 23-207, chain 1 of 3): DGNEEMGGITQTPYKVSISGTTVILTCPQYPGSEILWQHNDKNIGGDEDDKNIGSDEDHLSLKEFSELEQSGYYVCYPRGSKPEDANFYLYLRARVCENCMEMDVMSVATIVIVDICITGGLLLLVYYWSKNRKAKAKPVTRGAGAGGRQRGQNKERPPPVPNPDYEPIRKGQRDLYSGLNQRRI
T1 sequence (P04234 22-171, chain 2 of 3): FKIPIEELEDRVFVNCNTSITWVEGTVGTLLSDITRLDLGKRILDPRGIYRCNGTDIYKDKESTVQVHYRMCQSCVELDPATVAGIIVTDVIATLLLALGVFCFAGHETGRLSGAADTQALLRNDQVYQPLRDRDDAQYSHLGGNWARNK
T1 sequence (P09693 23-182, chain 3 of 3): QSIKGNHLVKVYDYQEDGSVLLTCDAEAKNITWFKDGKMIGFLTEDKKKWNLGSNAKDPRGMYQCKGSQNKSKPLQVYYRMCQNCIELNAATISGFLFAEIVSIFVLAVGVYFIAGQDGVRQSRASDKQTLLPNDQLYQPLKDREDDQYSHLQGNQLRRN

B1: Bis-40E9-L2H3 (bispecific antibody, human IgG1, kappa, L234A L235A)
heavy 1: not shown
heavy 2: EVQLVQSGAEVKKPGASVKVSCKASGYTFTSYVIHWVRQAPGQGLEWMGYFNPYNDGTKYNEEFKGRVTLTSDKSTSTAYMELRSLRSDDTAVYYCARGGVRRYFDVWGQGTTVTVSSASTKGPSVFPLAPSSKSTSGGTAALGCLVKDYFPEPVTVSWNSGALTSGVHTFPAVLQSSGLYSLSSVVTVPSSSLGTQTYICNVNHKPSNTKVDKKVEPKSCGGGGSGGGGSEVQLVQSGAEVKKPGSSVKVSCKASGYTFSSYVIHWVRQAPGQCLEWMGYINPYNDVIKYNEKFKGRVTLTSDKSTSTAYMELSSLRSEDTAVYYCARDSYYSYDGFAYWGQGTLVTVSSGGGGSGGGGSGGGGSGGGGSEIVLTQSPDFQSVTPKEKVTITCSASSSVSYMHWYQQKPDQSPKRLIYDTSKLASGVPSRFSGSGSGTDFTLTINSLEAEDAATYYCQQWSSNPPTFGCGTKVEIKGGGGSGGGGSDKTHTCPPCPAPEAAGGPSVFLFPPKPKDTLMISRTPEVTCVVVDVSHEDPEVKFNWYVDGVEVHNAKTKPREEQYNSTYRVVSVLTVLHQDWLNGKEYKCKVSNKALPAPIEKTISKAKGQPREPQVCTLPPSREEMTKNQVSLSCAVKGFYPSDIAVEWESNGQPENNYKTTPPVLDSDGSFFLVSKLTVDKSRWQQGNVFSCSVMHEALHNHYTQKSLSLSPGK
light: DIQMTQSPSSLSASVGDRVTITCRASQDIGSNLNWLQQKPGKAIKRLIYATFGLDSGVPSRFSGSRSGTDFTLTISSLQPEDFATYYCQQYASFPYTFGGGTKVEIKRTVAAPSVFIFPPSDEQLKSGTASVVCLLNNFYPREAKVQWKVDNALQSGNSQESVTEQDSKDSTYSLSSTLTLSKADYEKHKVYACEVTHQGLSSPVTKSFNRGEC
Ratio of EC50 (relative to ATG-Bis-40E9) (CD3 on Jurkat cells): 1.65 ratio
Ratio of Top MFI (relative to ATG-Bis-40E9) (CD3 on Jurkat cells): 0.77 ratio
Ratio of IC50 (relative to ATG-Bis-40E9), MM.1S cytotoxicity (GPRC5D on MM.1S cells [1]): 0.23 ratio
Ratio of Top cytotoxicity (relative to ATG-Bis-40E9), MM.1S cytotoxicity (GPRC5D on MM.1S cells [1]): 1.04 ratio
Ratio of EC50 (relative to ATG-Bis-40E9), luciferase assay on MM.1S (GPRC5D on MM.1S cells [2]): 3.25 ratio
Ratio of Top RLU (relative to ATG-Bis-40E9), luciferase assay on MM.1S (GPRC5D on MM.1S cells [2]): 1.09 ratio
Ratio of EC50 (relative to ATG-Bis-40E9) (GPRC5D on MM.1S cells [3]): 1.19 ratio
Ratio of Top MFI (relative to ATG-Bis-40E9) (GPRC5D on MM.1S cells [3]): 0.997 ratio

B2: Bis-40E9-L2H3-Y101F.H (bispecific antibody)
heavy 1: not shown
heavy 2: EVQLVQSGAEVKKPGASVKVSCKASGYTFTSYVIHWVRQAPGQGLEWMGYFNPYNDGTKYNEEFKGRVTLTSDKSTSTAYMELRSLRSDDTAVYYCARGGVRRYFDVWGQGTTVTVSSASTKGPSVFPLAPSSKSTSGGTAALGCLVKDYFPEPVTVSWNSGALTSGVHTFPAVLQSSGLYSLSSVVTVPSSSLGTQTYICNVNHKPSNTKVDKKVEPKSCGGGGSGGGGSEVQLVQSGAEVKKPGSSVKVSCKASGYTFSSYVIHWVRQAPGQCLEWMGYINPYNDVIKYNEKFKGRVTLTSDKSTSTAYMELSSLRSEDTAVYYCARDSFYSYDGFAYWGQGTLVTVSSGGGGSGGGGSGGGGSGGGGSEIVLTQSPDFQSVTPKEKVTITCSASSSVSYMHWYQQKPDQSPKRLIYDTSKLASGVPSRFSGSGSGTDFTLTINSLEAEDAATYYCQQWSSNPPTFGCGTKVEIKGGGGSGGGGSDKTHTCPPCPAPEAAGGPSVFLFPPKPKDTLMISRTPEVTCVVVDVSHEDPEVKFNWYVDGVEVHNAKTKPREEQYNSTYRVVSVLTVLHQDWLNGKEYKCKVSNKALPAPIEKTISKAKGQPREPQVCTLPPSREEMTKNQVSLSCAVKGFYPSDIAVEWESNGQPENNYKTTPPVLDSDGSFFLVSKLTVDKSRWQQGNVFSCSVMHEALHNHYTQKSLSLSPGK
light: DIQMTQSPSSLSASVGDRVTITCRASQDIGSNLNWLQQKPGKAIKRLIYATFGLDSGVPSRFSGSRSGTDFTLTISSLQPEDFATYYCQQYASFPYTFGGGTKVEIKRTVAAPSVFIFPPSDEQLKSGTASVVCLLNNFYPREAKVQWKVDNALQSGNSQESVTEQDSKDSTYSLSSTLTLSKADYEKHKVYACEVTHQGLSSPVTKSFNRGEC
notes: Fab-scFv-Fab format with LALA mutations
Ratio of EC50 (relative to ATG-Bis-40E9) (CD3 on Jurkat cells): 13.6 ratio
Ratio of IC50 (relative to ATG-Bis-40E9), MM.1S cytotoxicity (GPRC5D on MM.1S cells [1]): 1.94 ratio
Ratio of Top cytotoxicity (relative to ATG-Bis-40E9), MM.1S cytotoxicity (GPRC5D on MM.1S cells [1]): 1.03 ratio
Ratio of EC50 (relative to ATG-Bis-40E9), luciferase assay on MM.1S (GPRC5D on MM.1S cells [2]): 4.89 ratio
Ratio of Top RLU (relative to ATG-Bis-40E9), luciferase assay on MM.1S (GPRC5D on MM.1S cells [2]): 1.57 ratio
Ratio of EC50 (relative to ATG-Bis-40E9) (GPRC5D on MM.1S cells [3]): 1.27 ratio
Ratio of Top MFI (relative to ATG-Bis-40E9) (GPRC5D on MM.1S cells [3]): 0.954 ratio

B3: Bis-40E9-L2H11 (bispecific antibody)
heavy 1: not shown
heavy 2: EVQLVQSGAEVKKPGASVKVSCKASGYTFTSYVIHWVRQAPGQGLEWMGYFNPYNDGTKYNEEFKGRVTLTSDKSTSTAYMELRSLRSDDTAVYYCARGGVRRYFDVWGQGTTVTVSSASTKGPSVFPLAPSSKSTSGGTAALGCLVKDYFPEPVTVSWNSGALTSGVHTFPAVLQSSGLYSLSSVVTVPSSSLGTQTYICNVNHKPSNTKVDKKVEPKSCGGGGSGGGGSEVQLVQSGAEVKKPGSSVKVSCKASGYTFSSYVIHWVRQAPGQCLEWMGYINPYNDVIKYNEKFKGRVTLTSDKSTSTAYMELSSLRSEDTAVYYCARDSYYSYRAFAYWGQGTLVTVSSGGGGSGGGGSGGGGSGGGGSEIVLTQSPDFQSVTPKEKVTITCSASSSVSYMHWYQQKPDQSPKRLIYDTSKLASGVPSRFSGSGSGTDFTLTINSLEAEDAATYYCQQWSSNPPTFGCGTKVEIKGGGGSGGGGSDKTHTCPPCPAPEAAGGPSVFLFPPKPKDTLMISRTPEVTCVVVDVSHEDPEVKFNWYVDGVEVHNAKTKPREEQYNSTYRVVSVLTVLHQDWLNGKEYKCKVSNKALPAPIEKTISKAKGQPREPQVCTLPPSREEMTKNQVSLSCAVKGFYPSDIAVEWESNGQPENNYKTTPPVLDSDGSFFLVSKLTVDKSRWQQGNVFSCSVMHEALHNHYTQKSLSLSPGK
light: DIQMTQSPSSLSASVGDRVTITCRASQDIGSNLNWLQQKPGKAIKRLIYATFGLDSGVPSRFSGSRSGTDFTLTISSLQPEDFATYYCQQYASFPYTFGGGTKVEIKRTVAAPSVFIFPPSDEQLKSGTASVVCLLNNFYPREAKVQWKVDNALQSGNSQESVTEQDSKDSTYSLSSTLTLSKADYEKHKVYACEVTHQGLSSPVTKSFNRGEC
notes: Fab-scFv-Fab format with LALA mutations; copies: 1 + 1 + 2
Ratio of EC50 (relative to ATG-Bis-40E9) (CD3 on Jurkat cells): 7.88 ratio
Ratio of Top MFI (relative to ATG-Bis-40E9) (CD3 on Jurkat cells): 6.35 ratio
Ratio of IC50 (relative to ATG-Bis-40E9), MM.1S cytotoxicity (GPRC5D on MM.1S cells [1]): 13.7 ratio
Ratio of Top cytotoxicity (relative to ATG-Bis-40E9), MM.1S cytotoxicity (GPRC5D on MM.1S cells [1]): 1 ratio
Ratio of EC50 (relative to ATG-Bis-40E9), luciferase assay on MM.1S (GPRC5D on MM.1S cells [2]): 26.2 ratio
Ratio of Top RLU (relative to ATG-Bis-40E9), luciferase assay on MM.1S (GPRC5D on MM.1S cells [2]): 1.24 ratio
Ratio of EC50 (relative to ATG-Bis-40E9) (GPRC5D on MM.1S cells [3]): 5.78 ratio
Ratio of Top MFI (relative to ATG-Bis-40E9) (GPRC5D on MM.1S cells [3]): 1.47 ratio

B4: Bis-40E9-L2H7 (bispecific antibody)
heavy 1: not shown
heavy 2: EVQLVQSGAEVKKPGASVKVSCKASGYTFTSYVIHWVRQAPGQGLEWMGYFNPYNDGTKYNEEFKGRVTLTSDKSTSTAYMELRSLRSDDTAVYYCARGGVRRYFDVWGQGTTVTVSSASTKGPSVFPLAPSSKSTSGGTAALGCLVKDYFPEPVTVSWNSGALTSGVHTFPAVLQSSGLYSLSSVVTVPSSSLGTQTYICNVNHKPSNTKVDKKVEPKSCGGGGSGGGGSEVQLVQSGAEVKKPGSSVKVSCKASGYTFSSYVIHWVRQAPGQCLEWMGYINPGNGVIKYNEKFKGRVTLTSDKSTSTAYMELSSLRSEDTAVYYCARDSYSSYDGFAYWGQGTLVTVSSGGGGSGGGGSGGGGSGGGGSEIVLTQSPDFQSVTPKEKVTITCSASSSVSYMHWYQQKPDQSPKRLIYDTSKLASGVPSRFSGSGSGTDFTLTINSLEAEDAATYYCQQWSSNPPTFGCGTKVEIKGGGGSGGGGSDKTHTCPPCPAPEAAGGPSVFLFPPKPKDTLMISRTPEVTCVVVDVSHEDPEVKFNWYVDGVEVHNAKTKPREEQYNSTYRVVSVLTVLHQDWLNGKEYKCKVSNKALPAPIEKTISKAKGQPREPQVCTLPPSREEMTKNQVSLSCAVKGFYPSDIAVEWESNGQPENNYKTTPPVLDSDGSFFLVSKLTVDKSRWQQGNVFSCSVMHEALHNHYTQKSLSLSPGK
light: DIQMTQSPSSLSASVGDRVTITCRASQDIGSNLNWLQQKPGKAIKRLIYATFGLDSGVPSRFSGSRSGTDFTLTISSLQPEDFATYYCQQYASFPYTFGGGTKVEIKRTVAAPSVFIFPPSDEQLKSGTASVVCLLNNFYPREAKVQWKVDNALQSGNSQESVTEQDSKDSTYSLSSTLTLSKADYEKHKVYACEVTHQGLSSPVTKSFNRGEC
notes: as for B2
Ratio of EC50 (relative to ATG-Bis-40E9) (CD3 on Jurkat cells): 1.24 ratio
Ratio of Top MFI (relative to ATG-Bis-40E9) (CD3 on Jurkat cells): 0.68 ratio
Ratio of IC50 (relative to ATG-Bis-40E9), MM.1S cytotoxicity (GPRC5D on MM.1S cells [1]): 3.21 ratio
Ratio of Top cytotoxicity (relative to ATG-Bis-40E9), MM.1S cytotoxicity (GPRC5D on MM.1S cells [1]): 0.98 ratio
Ratio of EC50 (relative to ATG-Bis-40E9), luciferase assay on MM.1S (GPRC5D on MM.1S cells [2]): 2.79 ratio
Ratio of Top RLU (relative to ATG-Bis-40E9), luciferase assay on MM.1S (GPRC5D on MM.1S cells [2]): 0.85 ratio
Ratio of EC50 (relative to ATG-Bis-40E9) (GPRC5D on MM.1S cells [3]): 2.5 ratio
Ratio of Top MFI (relative to ATG-Bis-40E9) (GPRC5D on MM.1S cells [3]): 1.25 ratio
